In US20250074996A1 (Innovent, published 2025):
Where two headings read alike, the source gives them in different places.

What was measured:
[1] = biological target: T1, CD3E on the surface of Jurkat-NFAT-Luc cells (UniProt P07766 23-207); experiment: cell-based or functional assay
[2] = biological target: T1, CD3E on the surface of Jurkat-NFAT-Luc …; experiment: cell-based or functional assay; remark: listed apart in the source
[3] = biological target: T1, CD3E on the surface of Jurkat-NFAT-Luc …; experiment: cell-based or functional assay; remark: listed apart in the source
Human CD3D&E-Bio = biological target: T2, Human CD3D&E-Bio (human, UniProt P07766 23-126; P04234 22-105, biotin-labeled (site not stated)); experiment: BLI (Octet Red96e), SA or AHC sensors, 1:1 fit
T2 construct: Bought heterodimer antigen; also called human CD3D&E heterodimer antigen (ACRO Biosystems); human CD3E
Experimental: (§1) Sensors (Fortebio, Cat #18-5019) coupled to streptavidin protein (SA) or anti-human-Fc (AHC) were pre-wetted by immersion in 200 μL of SD buffer (1×PBS, 0.1% BSA, 0.05% tween-20). Exemplary antibodies and biotin-labeled or Fc-tagged BCMA and CD3D&E heterodimer antigens were diluted with SD buffer, respectively. 200 μL of SD buffer and diluted samples (100 nM) were taken and added to a 96-well black plate (Greiner, Cat #655209), respectively. The sensors and the samples were placed in Octet (Fortebio, Red96e). Data Acquisition 10.0 was executed and “New Kinetic Experiment” was selected. The sensors were arranged according to the positions of the samples, and the operation procedures and times were set as: Baseline 60 s, Loading 250 s, Baseline 100 s, Association 600 s and Dissociation 600 s. The experiment was conducted at a rotation speed of 1000 rpm and 30° C.
(§2) The results were analyzed in “Data Analysis 10.0” software, with the buffer reference channel being subtracted. 1:1 binding was selected to fit the data, and kₒₙ, koff, and KD values for the exemplary antibodies were calculated.
(§3) In experiments performed according to the above-mentioned assay, the affinities of the exemplary antibodies were detected using a human CD3D&E heterodimer antigen (ACRO Biosystems) and a monkey CD3D&E heterodimer antigen (ACRO Biosystems). The binding affinities of GPRC5D×CD3 bispecific antibodies hz5E12.1-P1/SP34.24 and hz5E12.1-P1/SP34.87 to human/monkey CD3D&E were also detected.

Cyno CD3D&E-Bio = biological target: T3, Cyno CD3D&E-Bio (monkey (cyno), UniProt Q95LI5 22-117; Q95LI8 22-105, biotin-labeled (site not stated)); experiment: BLI (Octet Red96e), SA or AHC sensors, 1:1 fit
T3 construct: Bought heterodimer antigen; also called monkey CD3D&E heterodimer antigen (ACRO Biosystems); monkey CD3E
Experimental: as §1, §2, §3

[4] = biological target: T1, CD3E on the surface of Jurkat-NFAT-Luc …; experiment: cell-based or functional assay; remark: listed apart in the source

T2 sequence (P07766 23-126 limits assumed, chain 1 of 2): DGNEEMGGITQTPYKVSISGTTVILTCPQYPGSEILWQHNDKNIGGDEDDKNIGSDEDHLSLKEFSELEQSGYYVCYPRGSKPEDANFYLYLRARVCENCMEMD
T2 sequence (P04234 22-105 limits assumed, chain 2 of 2): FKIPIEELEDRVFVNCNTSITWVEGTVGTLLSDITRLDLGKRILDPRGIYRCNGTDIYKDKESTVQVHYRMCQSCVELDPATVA
T3 sequence (Q95LI5 22-117 limits assumed, chain 1 of 2): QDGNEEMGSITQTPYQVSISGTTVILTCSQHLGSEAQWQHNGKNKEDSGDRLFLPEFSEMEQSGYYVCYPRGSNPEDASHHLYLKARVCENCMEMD
T3 sequence (Q95LI8 22-105 limits assumed, chain 2 of 2): as the sequence (P04234 22-105 limits assumed, chain 2 of 2) above, with I5V, N15K, I20V, S32T, D33N, I34N, T64A, S74N, V83L counted along it
T1 sequence (P07766 23-207): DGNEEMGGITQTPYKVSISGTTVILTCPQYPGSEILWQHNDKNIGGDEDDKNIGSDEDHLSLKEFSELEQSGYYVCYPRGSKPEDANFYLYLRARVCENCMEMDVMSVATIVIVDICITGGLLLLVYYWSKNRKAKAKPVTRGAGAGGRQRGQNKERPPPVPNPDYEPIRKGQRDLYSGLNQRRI

Binder | EC50 of Jurkat-NFAT-Luc luciferase activation; target cells huGPRC5D-GS-CHO [1] [pM] | EC50 of Jurkat-NFAT-Luc luciferase activation; tumor cells H929 [1] [pM] | EC50 of Jurkat-NFAT-Luc luciferase activation; tumor cells L363 [1] [pM] | EC50 of Jurkat-NFAT-Luc luciferase activation; tumor cells U266 [1] [pM] | EC50 of Jurkat-NFAT-Luc luciferase activation; tumor cells 8226 [2] [pM] | EC50 of Jurkat-NFAT-Luc luciferase activation; tumor cells H929 [2] [pM] | EC50 of Jurkat-NFAT-Luc luciferase activation; tumor cells L363 [2] [pM] | EC50 of Jurkat-NFAT-Luc luciferase activation; tumor cells U266 [2] [pM] | other results
TS-F2-3 (ch7F5D4/SP34.24/38456) (antibody, human IgG1, kappa, lambda, L234A L235A) heavy 1: not shown light 1: DIQMTQTTSSLSASLGDRVTISCRASQDIRNYLNWYQQRPDGTIKLLIYYTSRLHSGVPSRFSGSGSGTDYSLTISNLDQEDFATYFCQQGNMLPWTFGGGTSLEIKRTVAAPSVFIFPPSDEQLKSGTASVVCLLNNFYPREAKVQWKVDNALQSGNSQESVTEQDSKDSTYSLSSTLTLSKADYEKHKVYACEVTHQGLSSPVTKSFNRGEC heavy 2: not shown light 2: QAVVTQEPSLTVSPGGTVTLTCRSSTGAVTTSNYANWVQQKPGQAPRGLIGGTNKRAPGVPARFSGSLLGDKAALTLLGAQPEDEAEYYCALWYSNLWVFGQGTKLTVLGQPKAAPSVTLFPPSSEELQANKATLVCLISDFYPGAVTVAWKADSSPVKAGVETTTPSKQSNNKYAASSYLSLTPEQWKSHRSYSCQVTHEGSTVEKTVAPTECS | 1.45 | 5.47 | 2.86 | 47 |  |  |  |  | 
GPRC5D×CD3 bispecific antibody (ch7F5D4/hzsp34.24) (bispecific antibody, V domains shown) VH 1: DVQLQESGPGLVKPSQSLSLTCTVTGYSITSDYAWNWIRQFPGNKLEWMVYIDYTGRTSYNPSLKSRISLTRDTSKNQFFLQFNSVTTEDTATYYCARGNYGRYYYVMDYWGQGTSVTVSS VL 1: DIQMTQTTSSLSASLGDRVTISCRASQDIRNYLNWYQQRPDGTIKLLIYYTSRLHSGVPSRFSGSGSGTDYSLTISNLDQEDFATYFCQQGNMLPWTFGGGTSLEIK VH 2: EVQLVESGGGLVQPGGSLKLSCAASGFTFNTYAMNWVRQASGKGLEWVGRIRSKYNNYATYYADSVKDRFTISRDDSKSTLYLQMNSLKTEDTAVYYCARHGNFGQSYVSWFAYWGQGTTVTVSS VL 2: QAVVTQEPSLTVSPGGTVTLTCRSSTGAVTTSNYANWVQQKPGQAPRGLIGGTNKRAPGVPARFSGSLLGDKAALTLLGAQPEDEAEYYCALWYSNLWVFGQGTKLTVL | 5.66 | 7.72 | 5.62 | 36.1 |  |  |  |  | 
BCMA×CD3 bispecific antibody (38456/hzsp34.24) (bispecific antibody, V domains shown) VH 1: EVQLVESGGGLVQPGRSLRLSCAASGFTFGDYAIHWVRQAPGKGLEWVSGISWDSSSIAYADSVKGRFTISRDNAKNSLYLQMNSLRAEDTAVYYCAKDSPVRDSFGSIAFDIWGQGTMVTVSS VL 1: EIVLTQSPATLSLSPGERATLSCRASQSVSSYLAWYQQKPGQAPRLLIYDASKRATGIPARFSGSGSGTDFTLTISSLEPEDFAVYYCQQASALPLTFGGGTKVEIK VH 2: EVQLVESGGGLVQPGGSLKLSCAASGFTFNTYAMNWVRQASGKGLEWVGRIRSKYNNYATYYADSVKDRFTISRDDSKSTLYLQMNSLKTEDTAVYYCARHGNFGQSYVSWFAYWGQGTTVTVSS VL 2: QAVVTQEPSLTVSPGGTVTLTCRSSTGAVTTSNYANWVQQKPGQAPRGLIGGTNKRAPGVPARFSGSLLGDKAALTLLGAQPEDEAEYYCALWYSNLWVFGQGTKLTVL |  |  |  |  | 4.82 | 59.6 | 36.6 | 11 | 
GPRC5D×CD3 bispecific antibody hz5E12.1-P1/SP34.24 (bispecific antibody, V domains shown) VH 1: QVQLVQSGAEVKKPGASVKVSCKASGYTFIGYVMHWVRQAPGQGLEWMGYINPYNDVSQHQGKFKGRVTMTSDTSTSTVYMELSSLRSEDTAVYYCAREGRLGLRVLAYWGQGTLVTVSS VL 1: DIVMTQSPDSLAVSLGERATINCRASESVDSYGITFMNWYQQKPGQPPKLLIYAASNQGSGVPDRFSGSGSGTDFTLTISSLQAEDVAVYYCQQSKEVPWTFGQGTKLEIK VH 2: EVQLVESGGGLVQPGGSLKLSCAASGFTFNTYAMNWVRQASGKGLEWVGRIRSKYNNYATYYADSVKDRFTISRDDSKSTLYLQMNSLKTEDTAVYYCARHGNFGQSYVSWFAYWGQGTTVTVSS VL 2: QAVVTQEPSLTVSPGGTVTLTCRSSTGAVTTSNYANWVQQKPGQAPRGLIGGTNKRAPGVPARFSGSLLGDKAALTLLGAQPEDEAEYYCALWYSNLWVFGQGTKLTVL |  |  |  |  | 3.18 | 6.56 | 5.59 | 5.7 | EC50 of Jurkat-NFAT-Luc luciferase activation; tumor cells 8226 [3]: 3.18 pM; EC50 of Jurkat-NFAT-Luc luciferase activation; tumor cells H929 [3]: 6.56 pM; EC50 of Jurkat-NFAT-Luc luciferase activation; tumor cells L363 [3]: 5.59 pM; EC50 of Jurkat-NFAT-Luc luciferase activation; tumor cells U266 [3]: 5.7 pM; Kd (Human CD3D&E-Bio): 21400 pM; koff (Human CD3D&E-Bio): 0.00335 s⁻¹; kon (Human CD3D&E-Bio): 156000 M⁻¹ s⁻¹; Kd (Cyno CD3D&E-Bio): 26000 pM; koff (Cyno CD3D&E-Bio): 0.00319 s⁻¹; kon (Cyno CD3D&E-Bio): 123000 M⁻¹ s⁻¹; EC50 of Jurkat-NFAT-Luc luciferase activation; tumor cells ARD [4]: 2.73 pM; EC50 of Jurkat-NFAT-Luc luciferase activation; tumor cells MM.1S [4]: 2.25 pM
GPRC5D×CD3 bispecific antibody hz5E12.1-P1/SP34.87 (bispecific antibody, V domains shown) VH 1: QVQLVQSGAEVKKPGASVKVSCKASGYTFIGYVMHWVRQAPGQGLEWMGYINPYNDVSQHQGKFKGRVTMTSDTSTSTVYMELSSLRSEDTAVYYCAREGRLGLRVLAYWGQGTLVTVSS VL 1: DIVMTQSPDSLAVSLGERATINCRASESVDSYGITFMNWYQQKPGQPPKLLIYAASNQGSGVPDRFSGSGSGTDFTLTISSLQAEDVAVYYCQQSKEVPWTFGQGTKLEIK VH 2: EVQLVESGGGLVQPGGSLKLSCAASGFTFNTYAMNWVRQASGKGLEWVGRIRSKYNNYATYYADSVKDRFTISRDDSKSTLYLQMNSLKTEDTAVYYCARHYNFGQSYVSWFAYWGQGTTVTVSS VL 2: QAVVTQEPSLTVSPGGTVTLTCRSSTGAVTTSNYANWVQQKPGQAPRGLIGGTNKRAPGVPARFSGSLLGDKAALTLLGAQPEDEAEYYCALWYSNLWVFGQGTKLTVL |  |  |  |  | 20.1 | 45.3 | 38.9 | 145 | Kd (Human CD3D&E-Bio): 285000 pM; koff (Human CD3D&E-Bio): 0.0176 s⁻¹; kon (Human CD3D&E-Bio): 61900 M⁻¹ s⁻¹; Kd (Cyno CD3D&E-Bio): 290000 pM; koff (Cyno CD3D&E-Bio): 0.0169 s⁻¹; kon (Cyno CD3D&E-Bio): 58300 M⁻¹ s⁻¹; EC50 of Jurkat-NFAT-Luc luciferase activation; tumor cells ARD [4]: 14.9 pM; EC50 of Jurkat-NFAT-Luc luciferase activation; tumor cells MM.1S [4]: 18.3 pM
TS-F6-2 (antibody, human IgG1, kappa, L234A L235A) heavy: not shown light: DIQMTQTTSSLSASLGDRVTISCRASQDIRNYLNWYQQRPDGTIKLLIYYTSRLHSGVPSRFSGSGSGTDYSLTISNLDQEDFATYFCQQGNMLPWTFGGGTSLEIKRTVAAPSVFIFPPSDEQLKSGTASVVCLLNNFYPREAKVQWKVDNALQSGNSQESVTEQDSKDSTYSLSSTLTLSKADYEKHKVYACEVTHQGLSSPVTKSFNRGECGGGGSGGGGSEVQLVESGGGLVQPGGSLKLSCAASGFTFNTYAMNWVRQASGKCLEWVGRIRSKYNNYATYYADSVKDRFTISRDDSKSTLYLQMNSLKTEDTAVYYCARHGNFGQSYVSWFAYWGQGTTVTVSSGGGGSGGGGSGGGGSGGGGSQAVVTQEPSLTVSPGGTVTLTCRSSTGAVTTSNYANWVQQKPGQAPRGLIGGTNKRAPGVPARFSGSLLGDKAALTLLGAQPEDEAEYYCALWYSNLWVFGCGTKLTVL |  | 2200 | 61.7 |  |  |  |  |  | 
TS-F6-1 (antibody, human IgG1, kappa, L234A L235A) heavy: not shown light: DIQMTQTTSSLSASLGDRVTISCRASQDIRNYLNWYQQRPDGTIKLLIYYTSRLHSGVPSRFSGSGSGTDYSLTISNLDQEDFATYFCQQGNMLPWTFGGGTSLEIKRTVAAPSVFIFPPSDEQLKSGTASVVCLLNNFYPREAKVQWKVDNALQSGNSQESVTEQDSKDSTYSLSSTLTLSKADYEKHKVYACEVTHQGLSSPVTKSFNRGECGGGGSGGGGSQAVVTQEPSLTVSPGGTVTLTCRSSTGAVTTSNYANWVQQKPGQAPRGLIGGTNKRAPGVPARFSGSLLGDKAALTLLGAQPEDEAEYYCALWYSNLWVFGCGTKLTVLGGGGSGGGGSGGGGSGGGGSEVQLVESGGGLVQPGGSLKLSCAASGFTFNTYAMNWVRQASGKCLEWVGRIRSKYNNYATYYADSVKDRFTISRDDSKSTLYLQMNSLKTEDTAVYYCARHGNFGQSYVSWFAYWGQGTTVTVSS | 9.66 | 3790 | 77.1 | 366 |  |  |  |  | 
